According to a protein production outcome set (Wang et al. 2014):

Experiment: label from the status in PepcDB records
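Note: failed if final PepcDB status was selected cloned or expressed and not failed if soluble or beyond.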

| Sequence | protein production |
| --- | --- |
| MTNNTDIKNQTNPMSGDLLRQIIRLGFPVAIQSALVAILALADVLMVSDFGKEATAAVGIASKWHFVAIMIMAGLASANGTLVAQYWGRNDAVSAKTVTGIAIRFGLKVLIPVTLIITLGSELIMRLQTSDTRVIELGATYLWYAFPVLLLTHIVIVLEASMRSSGDTVTPLLMGAMTIVLNIGLNFWLIKGGFGIPAMGVAGAAFATTISRLFQVLAMIAYMRWRKHWLLEVKEGSERPSLWLSYRRLALPMTLGALLWAIGTMVYQMIFGHMGTTELAVFSMLGPFESLCYSIFFGISVACSVMIGQSLGRDAFEQAEHMAKFFIKAVFVFGISIGALLLLNRELIIAALNLDNPELYPLAAPAVMILCCAIWLRMLNMIIINGIIRAGGDNVFCLRMDFIAMWMTGLPLCAIAAFVLGWEFKYVYALMIAEEVVKLALCYRRYTQKYWIKNLTVVTTS | not failed |
| IRRKINANVYDKVVLYAPTWRGIHGKATLDIEKLKNDLEKLADQDCHIVFRGHHMIEKLVSEQNISGITIVPSEIDTNELLGAIDILITDYSSIAFDFFVMNRPVIYYAYDIEQYNNERGLYFPLNELPGTVCFNDVELLNTLSGYLRNEIYFDASKGIDKFCKNDDGSVCGKVIEWFFF | failed |
| MNMYRVLLIILGWISVVLATLGVVLPLLPTTPFLLLAAWCFARSSPRFHNWLLHRSWFGSYLRHWQQHRALPPGAKWKAVTMILLTFALSLWLVKLVWVRILLLVILTILLTFMLRLPVVDPEQQTQGADPKR | failed |
| MANAKPVCSLFHSTFHDGIASVFHRSFSFPLLLILLIAFSGSGYANSSKETRAAARSESAGKTVSSRWAKGRLLVIPRAGLTAMEFDKATKPYGVKSRRRLNGLNAHVYELPDGVDEVKVLDKLKKDRRFKAVELDRLVEPAQVVTDPAFGNSWALPKIQAPAAWDIATGDGITIAILDTGVDGTHPDLAANMLPGWNAYDNNTDTSDIYGHGTKVAGTAAAVANNGAGSSGLAWNARILPVRISMPDGRAYLSDMAKGIRWAADNGARIANISYGGAESLTVQSAANYMRSKGGVVVMSAGNSGGLNNFPASNAIIVASATDSKDARASWSSYGPYVDVAAPGVSIYTTIRGGGYGYVSGTSFSSPIVAAAAALLFSINPDLAPTDIDQMLTATAQDLGNAGYDQYYGHGRINAASAVNAAHARISVDRTAPLISIASPTGGTVSGSVPVDVNYSDNKGVVRVDLYVNGRKTIEDTQPPFAFAWDTTTLANGSYTLVAYAFDAAGNQGTSSTVNVTVKNTVADTTPPTISITSPAGGAVVLGSVPVNVNSSDNIGVVRTELHVNGKKVMEGTGSSFVWDTKSLADGNYTLVAYAFDAAGNQGASSPVAVSVKNTGTTTNTEPLPQINSFNLRDGQNVSRNQNIRVTADRNTRKINLKINGGIIAAANGNSLSYRWNTSAIPKNSNITVTAEAFNAKGDATSRTVTVRN | failed |
| MSKHQRPRILITGAAGALAQQVIRRLRESCDLVAVDFREQVYLGDDIPSYCIDFNKRVFEDLFRRYEFDGVIHLGRILSSQLTRMRRYNANVLGTQKLLDLSHKYGIRRVIVLSTYHVYGAVAYNPALIDESAPLKSAGLSADLVDSVELENLANIYLWRYPELNITILRPCNIVGPGVRNTMSTLLSSERAPVLAGFSPMMQFIHIDDMADAIVAAWAKPVKGVFNVAPQDWVAYQHALKLCGCKTIPIPSIPPSVPKAIARVLNLRSFPPYLMAFFKYPVVIDGRAFAREFGFEPKRPLKEIFRYYRDNKKPV | failed |
| MPVIHCNKDDSQEASSQTPFLPLGFVFTKLYICLTIYSGGDDESMDGDINKYLVLAIIGVGGLSGLVASQSTGRNFPPATANKTVGR | failed |
| MKVIIIGGETTAYYLARSMLSRKYGVVIINKDRELCEEFAKKLKATIIHGDGSHKEILRDAEVSKNDVVVILTPRDEVNLFIAQLVMKDFGVKRVVSLVNDPGNMEIFKKMGITTVLNLTTLITNTVEALIFPDEFSSIIPLEQGIE | failed |
| MTSLRRRCIRQVPNTLTVGRFALVPVAAGFIWTGDLRAAFWVFVAAGITDALDGWLARVLDARTALGATLDPLADKALLVATFFTLALTGAIPLWLLGLVALRDALILAGFAWLRLRAGRPIRVTPNILGKANTLAQILLCAAVIGASAFTLDLSAVIAVLTPVVAATTIISGIAYLRMWLRRGWDGQQAHDRIERTRRNNQQRDDR | failed |
| MTRPMRLAAVAAACLTMALAGCQTNGAGSTDGVVRTNEPSKGDVTSFGDAFDGLKTVSDVEYYASDQAVAEATNQFRAENYGNAGALFFKATQLAPNDGGAWMGLAASCDRIRRFDLADRAYGKAFKLVGASAEYYNNVGYSYLLRGKLQDARTSFLKAYELAPNDPTVANNLKLLSSSVQNIER | failed |
| NEVDDMDTSDTQWGWFYLAECGKWHMFQPDTNSQCSVSSEDIEKSFKTNPCGSISFTTSKFSYKIDFAEMKQMNLTTGKQRLIKRAPFS | not failed |
| MDGKRVWLSDDELTRFIEQAETPHQRLAFLLAGRVGLRRSEIIEVCPQDLVDGPTGDHIRVWESYAKRDKYREPPVPQEVVTIAETLAYQQDDDEPLLDVAGSTVYRWVRRAADELEEETGDRGWQYLDVHDLRRTWGTYLLEQGVIPSVVMSFGGWEDWDTFRKHYLGLEHHHHHH | failed |
| MPRKNQDLYHHYPQKDRKFTMYKLSEKGEQIREMFSDIAPRYDFLNRLLSFGIDRRWRRIAVQCARWSEGGKILDVATGTGDVALEIARQTPDSVSIIGIDITEGMVVLGREKVAQSPYARRITLEIAPCEAIPFPDNTFDSVTIAFGIRNVVDRRQGLAEMQRILKPGGRAVILEFSTPRSQFFKRVYYFYFLRLLPAIGGLFSNFSAYKYLPDSVLEFPSQEEFKTLMRSVGFHSTTHRDLTFGIATIYTGEKAAQN | failed |
| MQIRVYDEGAVQDCLFVLGWGNRCRHRTVQWLIDQLTTAYRVHAVELPTHITDYRREWVGPVQEYAADLGRFDLLGHSAGGLTAAHLDADGIGNRVYLSPWWDSDFPVPGPVLDAIASLPITKPFIPIDTLDADAIGDLATAQQLAEAPSSVSPAFLRTVFRAQRSLPPARDTAAAFCSLTDTVVDPRAVGERLPADRIRLYDGGHELFSSSGREDTAETVIDTLQHGPDAL | failed |
| MASHQEQSYKAGETRGKAQEKTGEAMGTMGDKTQAAKDKTQETAQSAQQKAHETAQSAKDKTSQAAQTTQERAQESKDKTGSYMSETGEAIKNKAHDAAEYTKETAEAGKEKTSGILGQTGEQVKQMAMGATDAVKHTLGLRTDEGNKEHVSSAPSTTTTTTTRETQRK | failed |
| MGHHHHHHSHLCTNFFIFTGGPGSGKTAVLNELNTWGYLTVSEVARSIIQKQQADGGDAIHTGNRKAFRDLMLEQSIADYCKMQSEEKIVFFDRGIPDLYGYSKAFCGEASKEVNEAVGRFRYNKTVFIFPPWPEIYENDDERQQDYQEALQTYYAVKEGYFDCGYVLLEVPKCPIKDRANFIFQMISKNG | not failed |
| MSTPDIGTFTVRPLDPTRDAELLHGWVTHPKSAFWMMQEARLHDVEREYMAIAASEYHDAFLGLLDDEPVFLMEKYDPAHVELVGLYEPEPGDVGMHFLVAPTDTPVHGFTRAVITAVMEHLFADPATRRVVVEPDVGNKAVHALNEAVGFVPEREIQKPEKKALLSFCTREQFAAAVRGAAV | not failed |
| MKGGLYMKLTKKQLKEYIEDYKKSDDILINLYIETYEFYCRLRDELKNSDLMIEHTNKAGASNIVKNPLSIELTKTVQTLNNLLKSMGLTAAQRKKIVQEEGGFGDY | failed |
| MKPLRTRFLRWRGAAAGGLLAGALLASPAWAAKQADWWVYVHNDKARDIGALLAAGADPNVRYDNGQPAIMRAVVDNAWEVFDVLAANRRTDLNAENPAGETPLMYLAVAGQTERAQALIARGAQVNRLGWTPLHYAASKGRLETARMLLGKQALVNAPSPDGTTPLMMAAYSGDRRMVQLLLDAGADITTRNLKGMSAADWAAFGKSEALARELKPMIARAEAERQARHGAVATSKLAPAAETPPTAQPAAASAAASQPGEGRSLSGVSGVRLNSYD | failed |
| MGKTPEEVDEVNKAAFSTSEASATIAAMNQLHKPVDTVVAHISPEAPAAKVMAEGDVITQVAGAKATGPSQVRDAVRAKKPGETISIGFLRDGKQLTREVTLGTHPEDDKVAFLGVSMTARPLEHHHHHH | not failed |
| MAADGIFRSIFEGCISGLDSAIERRPYHKNCGCALHDKSSGAGKNQNQRRPPSCRRHGSSESISFPIRRSWSEGNIMAMNLFSSSSSSSNLQSLSSSSSLSNLASDLPVDNAATEEPSRSNKQLRWTIDEGEDD | failed |
| TLDAGLQRQLEDLALNWKSRLPPRSSLAMVVVDHTDMKVRGWVGSADITDDSRFGHIDMVSAVRSPGSVLKPFIYAMAMDEGLIHPASLLQDVPRRFSDYRPGNFDSGFHGPVSASEALVRSLNLPAVQVLEAYGPKRFAANLRNAGLPLTLPAGAEPNLSLILGGAGARLEDIVAAYSAFARHGKAARLRLKPSDPLTERALMSPGAAWIVRRILAGEAQPVPDASLPQAVPLAWKTGTSYGYRDAWAVGLNARYLIGIWTGRPDGTPVVGQFGFASAVPLLNQVNNLLLARPAMSRGGL | failed |
| MGAAAAPEVNMELVGHFGGTTDAVDVAGNYAYVGQGQDFLILDITNPSSPVLVSKIMTEGFVRDIKVSRNYAYVADDDNGLVIVDISNPSSPTLKGSYNIPGYTYCITVSGNYAYVADNDGLVIVDISNPSDPILKGRYAGPTGDVAVYGNYAYVADWGNGLMIVDISNPSSPVLKGSYDTAGDIYGVSISGNYAYVADGDTGLVIVDISNPSSPTLKGNYNTAGIACDVSVLGNYAYVADNDNGLVIVDISDPSSPVLKGNGSTTGYAHGIEVSGNYAYVANSNTGLVIVDISNPSSPTLKGSCDTIVRAKSIAVSGNYAYIADWDNGLVIVDISNPSSPFLKGSCDTPRSAQGVAVSGNYAYVADDDGLVIVDISNPSFPILNKSYNTGGWAQGITVSGNYAYVIDMANGIFIVDISNPSSPILEGMYDTSPIIIENYDYTGSIWSVSVSGNYAYVADEGNGLLIVDISNPSSPILKGSYDTAGLAYDVAVSGNYAYVADSKNGLAIIDISNPSSPILVGNYNTSGYAECVSISGNYAYVAVDDSLVVVDISNPSSPILKGLYAGSAGDIAVSGNYVYASEGVNGLVILKANPESAFTVADFSSNITSGYAPLSIQFNDHSQNATSWNWDFGDGYNSTNQNPIHTYSSAGTYTVNLTVINENRTASKVAKIFVLNTSLEHHHHHH | failed |
| MDIVISGGTGLIGRAITEIQGNTYNVITRGPSRTDGNINLVNWNDLRKIRHCDVVINLAGYNIGSKRWNPKIKEEIIRSRIESTRRMVEFISSLDSKPEAFLSGSAIGYYGYGENTVFDENSPPGTGFLAELANAWEDEALKASRYTRTVILRTSNVLSSSGGFLARIMNSRSRRVYYFGDGDQPVSWIHIKDYVNAVKFLMENKDISGPVNMAAPSPVSFADLAHAIAREKGYKEMKIPEFIGKLILGSEMYRELMSGQRVAPKKLTGSGFSFQYPDLESAIKNLLEHHHHHH | failed |
| RNPLFTCVISSIETTLSIPISGVHRDVIKYTPSADVELVFYGKSLTLKTPPIDATGSPTPATITRACVELKNIKNLHIDAGAFVKPKIPFIEIDEKPTGRIEEGKAMNNSKELYMKGYLLGKNLDAELLIVGESVPGGTTTALGVLLGLGYDAEGKVSSGSINNPHELKIKVVREGLKKAGINEKSSVFDVLNAVGDKMMPVVAGLAISFAERNKPVILAGGTQMSAVLAVIKEINKKVLDKNLIAIGTTEFVLNDKKGDLKGIVEQIGNVPVLASKFYFEKAKIEGLKNYCKGSVKEGVGAGGIAVYSIVNDL | failed |
| MNLESITVVLPTRNEAGNIGAFLASLPQAVHLIVVDASEDETPDIIQRERPARTQVLRRRSTITQARQLGAEAALTDWLLFTDADIVFPDGYFDALERVMDAAVVYGPKLSRDRFAAYYRWFGYGQQCSHWLGIPAATGSNLLVRKDALIAVGGFDPALVCNEDSELVWRIKRAGYRIRFEPSLPVYARDHRRLDSGLWRKTCHSVFRCALLYWDLMPARWRGADWGYWSPQQSGRAPGVSRVELEHHHHHH | failed |
